This note sets out measurements from US7432342B2, “Kinase anchor protein muteins, peptides thereof and related documents” (Sequenom, Inc., priority 2002, dated 2008).

pKd: −log10 of the molar value. Read-outs that look alike come from different tables or passages of the source. Ends that are not written are not given here. Peptide text beside a SMILES is read from it.

One assay addresses PKA-RIα-GFP (Bos taurus, UniProt P00514). The assay can be described thus: Surface plasmon resonance (BIAcore CM5 chips). The class given is binding. As to the method: Two 27-mer peptides representing the Ile and Val variants (SEQ ID NOs:1 and 2, respectively) were synthesized and purified in milligram quantities and the affinity to PKA-RIα-GFP was determined using well-known surface plasmon resonance in combination with BIAcore chips (see, e.g., Current Opinion in Biotechnology (1997) 8:50-57; Current Opinion in Biotechnology (1994) 5:389-395; Current Opinion in Biotechnology (1994) 5:65-71; Structure (1995) 3:969; Current Biology (1995) pp. 699-705; Analytical Biochemistry (1991) 201:197-210; and macinfac.bio.unc.edu/biacore.html). PKA-RIα-GFP was coupled to BIAcore CM5 chips. BSA was immobilized on control chips.
The affinities in this assay are lower compared to those determined by fluorescence anisotropy. The most likely reason is that in this study the signal difference between the flow cell with the regulatory subunit and the control protein BSA was measured, such that slight unspecific binding to BSA directly reduces the apparent affinity. However, similar to previous results, an affinity difference of PKA-RIα-GFP to both allelic 27-mer peptides was observed (Table 6).
A general note: In SPR one partner is held on a chip, and binding of the other changes the refractive index at the surface.

A further assay deals with RIα (Bos taurus, UniProt P00514). Briefly: Fluorescence anisotropy binding of labeled 27-mer AKB Ile/Val peptides (Example 2). To be noted: in vitro; 10 nM labeled peptide. As to the method: To assess the magnitude of the affinity difference, binding of both Ile/Val variants to the R-subunit isoforms of PKA was analyzed in a quantitative assay. Twenty-seven residue peptides containing the two AKB domain Ile/Val variants (SEQ ID NOs:1 and 2, respectively) of D-AKAP2 with a C-terminal cysteine were synthesized by SynPep Corporation (Dublin, Calif.). The peptides were HPLC (high performance liquid chromatography) purified and mass spectrometry checked. Both peptides were labeled with tetramethyl rhodamine-5-maleiamide (Molecular Probes, Eugene, Oreg.) at the cysteine residue and HPLC purified. Increasing concentrations of RIα and RIIβ, respectively, were equilibrated with 10 nM of peptide for at least one hour at room temperature in 10 mM HEPES, 150 mM NaCl, 3 mM EDTA, 0.005% polysorbate 20. […] Fluorescence anisotropy was monitored using a Fluoromax-2 (Spex, Jobin Yvon Horiba, Edison, N.J.) equipped with polarizers. The fluorophore was excited at 541 nm (5-10 nm bandpass) and emission was monitored at 575 nm (5-10 nm bandpass). […]
Peptides of each AKB Ile/Val variant (SEQ ID NOs:1 and 2) were synthesized and fluorescence-labeled. Binding of the labeled peptides to the regulatory subunit isoforms was monitored using a fluorescence assay in which binding of the peptide was proportional to an increase in steady state anisotropy. […]
In general terms: In fluorescence polarisation assays a small probe gives low polarisation when free and higher when bound to something large.

A further assay deals with RIα isoform of PKA (Bos taurus, UniProt P00514). The assay can be described thus: In vitro pull-down assay of GST-fused AKB domain variants (Example 1). The class given is binding. Particulars: GST fusion of 40 C-terminal residues of D-AKAP2; RIα 20 μM; mouse and human AKB domains. An excerpt:
Binding of each AKB domain variant to PKA was first examined using an in vitro pull-down assay, in which the 40 C-terminal residues of D-AKAP2 (amino acids 623-662 of SEQ ID NO:64) containing the AKB were fused to glutathione-S-transferase (GST). The GST fusion constructs were made by fusing the 40 C-terminal amino acids of D-AKAP2 to the C-terminus of GST and subcloning between the NdeI and BamHI sites of pRSET (Invitrogen, Carlsbad, Calif.). The constructs were transfected into BL21 cells and expressed for 6 hours at 20° C. The cells were lysed in PBS with 5 mM BME and 0.1% Triton X-100. 3 μl of supernatant were added to 200 μl of this buffer and 10 μl glutathione beads. After three washes, RIα (53 μg, 20 μM) and RIIα (2.4 μg, 2 μM) were added to the beads, respectively, and the total volume was adjusted to 40 μl. After incubating for 30 min at 4° C., the beads were washed three times, and separated in a 10% acrylamide gel.

A further assay deals with T1, RIα-D/D-GFP (Bos taurus, UniProt P00514).
T1 construct: The dimerization/docking (D/D) domain of RIα and full-length RIIα were each fused with green fluorescent protein (GFP); expressed in transfected cells; host or cells: 10T(1/2) cells
Briefly: Co-localization of PKA regulatory domain with mitochondria-targeted AKB domain in 10T(1/2) cells (Example 3). It is filed as cell-based. Particulars: C-terminal 156 residues of D-AKAP2 fused to D-AKAP1 mitochondrial anchoring domain. The source says: The 30 amino acid mitochondrial anchoring domain of D-AKAP1 (Chen et al. (1997) J. Biol. Chem., 272:15247-57; and Huang et al. (1997) J. Biol. Chem., 272:8057-8064) was fused to the C-terminal 156 residues of mouse (amino acids 217-372 of SEQ ID NO:55) and human (amino acids 507-662 of SEQ ID NO:64) D-AKAP2, respectively, followed by a Flag-tag and subcloned into pcDNA4 (Invitrogen, Carlsbad, Calif.). The dimerization/docking (D/D) domain of RIα and full-length RIIα were each fused with green fluorescent protein (GFP) and cloned into pEGFPN1 (Clontech, Palo Alto, Calif.). […] The AKB domain was detected by immuno-staining with monoclonal antibodies against the Flag-tag (Kodak, Rochester, N.Y.) followed by rhodamine-conjugated secondary antibody (Jackson Lab, Bar Harbor, Me.). […]
In this assay, the AKB domain within the C-terminal 156 residues of D-AKAP2 from mouse (Val) and human (Ile) was fused to the mitochondrial anchoring domain from D-AKAP1 and tethered to the outer mitochondrial membrane (Chen et al. (1997) J. Biol. Chem., 272:15247-15257; and Huang et al. (1997) J. Biol. Chem., 272:8057-8064). The binding of the AKB domain with the PKA regulatory domains was detected as the co-transfected PKA regulatory domains co-localized to the mitochondria. […]

In another assay the target is PKA-RIIα-GFP (Mus musculus, UniProt P12367). The assay can be described thus: ELISA of biotinylated 27-mer peptide immobilized on neutravidin plates. The class given is binding. To be noted: 25 μM peptide on neutravidin; 0-5 μg/ml PKA-RIIα-GFP. Here is the method:
The peptide biotin-bA-bA-[…] (SEQ ID NO:14) was synthesized as a C-terminal amide in milligram quantity and purified to a 96% purity by HPLC. Its identity was confirmed by MALDI TOF (matrix-assisted laser desorption ionization time-of-flight) mass spectrometry. The peptide was immobilized in neutravidin (NA)-coated 96-well microtiter plates and incubated with various concentrations of PKA-RIIα-GFP. Binding was detected using an anti-GFP antibody (3E6, Quantum Biotechnologies, QBiogene, Carlsbad, Calif.) in combination with a second horseradish peroxidase labeled antibody. Microtiterplates were coated with 40 μg/ml Neutravidin (NA) and subsequently incubated with 25 μM peptide. Various concentrations (0-5 μg/ml) of PKA-RIIα-GFP were added. Bound subunit was detected using a mouse anti-GFP antibody (1 μg/ml) and an anti-mouse-IgG-antibody labeled with peroxidase (1 μg/ml). Negative controls were utilized that contained either a microtiter plate with only neutravidine or only peptide, or neither one.
(In an ELISA, binding on a coated surface is turned into a signal by an enzyme label.)

Sequence of RIα (P00514 whole entry, the tested form may be a part, canonical isoform): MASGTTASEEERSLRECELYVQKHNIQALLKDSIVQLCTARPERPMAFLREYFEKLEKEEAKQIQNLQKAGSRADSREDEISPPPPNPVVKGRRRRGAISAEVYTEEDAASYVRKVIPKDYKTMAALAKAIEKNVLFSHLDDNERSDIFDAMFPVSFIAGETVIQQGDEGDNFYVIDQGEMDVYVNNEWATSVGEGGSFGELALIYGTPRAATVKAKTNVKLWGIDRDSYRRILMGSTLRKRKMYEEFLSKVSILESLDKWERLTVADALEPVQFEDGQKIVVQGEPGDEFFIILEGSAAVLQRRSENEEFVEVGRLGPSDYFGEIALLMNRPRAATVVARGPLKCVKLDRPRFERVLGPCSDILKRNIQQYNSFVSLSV
Sequence of PKA-RIα-GFP (P00514 1-109 limits assumed): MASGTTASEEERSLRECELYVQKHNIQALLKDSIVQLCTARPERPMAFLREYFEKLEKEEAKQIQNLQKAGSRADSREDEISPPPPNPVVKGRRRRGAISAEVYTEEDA
Sequence of RIα isoform of PKA (P00514 whole entry, the tested form may be a part, canonical isoform): as the sequence (P00514 whole entry, the tested form may be a part, canonical isoform) above
Sequence of PKA-RIIα-GFP (P12367 1-46): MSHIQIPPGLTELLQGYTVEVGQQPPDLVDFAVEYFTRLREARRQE
T1 sequence (P00514 2-135 limits assumed): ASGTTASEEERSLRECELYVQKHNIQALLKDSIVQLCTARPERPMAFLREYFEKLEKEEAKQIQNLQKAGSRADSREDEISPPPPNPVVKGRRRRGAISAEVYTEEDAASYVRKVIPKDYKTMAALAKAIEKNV

With `CC[C@H](C)[C@H](NC(=O)[C@H](CCCCN)NC(=O)[C@H](Cc1c[nH]c2ccccc12)NC(=O)[C@H](C)NC(=O)[C@H](CC(C)C)NC(=O)[C@H](CCC(=O)O)NC(=O)[C@H](CCC(=O)O)NC(=O)[C@H](CCC(N)=O)NC(=O)[C@H](C)NC(=O)[C@H](CCC(=O)O)NC(=O)[C@H](CC(=O)O)NC(=O)[C@@H](NC(=O)[C@H](CC(N)=O)NC(=O)CNC(=O)[C@H](CCC(N)=O)NC(=O)[C@@H](NC(C)=O)C(C)C)[C@@H](C)O)C(=O)N[C@@H](C)C(=O)N[C@@H](CCCCN)C(=O)N[C@@H](CCSC)C(=O)N[C@H](C(=O)N[C@H](C(=O)N[C@@H](CO)C(=O)N[C@@H](CC(=O)O)C(=O)N[C@H](C(=O)N[C@@H](CCSC)C(=O)N[C@@H](CCC(N)=O)C(=O)N[C@@H](CCC(N)=O)C(N)=O)[C@@H](C)CC)C(C)C)[C@@H](C)CC` [SEQ ID NO:16] (Ac-VQGNTDEAQEELAWKIAKMIVSDIMQQ-NH2), the pKd at PKA-RIα-GFP (PKA-RIα-GFP coupled to chip (1681 RU), BSA control chip, read-out: PKA-RIα-GFP binding affinity) is 6.07.
Turning to “Val variant: D-AKAP2 AKB domain with Val at amino acid 646 (SEQ ID NO:65), tested as GST fusion or mitochondria-targeted fusion construct (VQGNTDEAQEELAWKIAKMIVSDVMQQAQYDQPLEKSTKL; not fully specified)”, the “binding affinity to RIα compared to the Ile variant” value with RIα is given as “three-fold tighter”. Moreover, the “binding of the RIα isoform of PKA to the AKB variant” value in the assay with RIα isoform of PKA was “significantly higher affinity”. Further, the “targeting of RIα to the mitochondria” value with RIα-D/D-GFP is on record as “effectively targeted RIα to the mitochondria”.
On to “VQGNTDEAQEELAWKIAKMIVSDVMQQ (not fully specified (N-terminus); listed as Homo sapiens) [SEQ ID NO:2]”, for which the “binding affinity to RIα compared to the Ile variant” value with RIα is given as “nearly three-fold increase in binding affinity”.
For the compound `CC[C@H](C)[C@H](NC(=O)[C@H](CCCCN)NC(=O)[C@H](Cc1c[nH]c2ccccc12)NC(=O)[C@H](C)NC(=O)[C@H](CC(C)C)NC(=O)[C@H](CCC(=O)O)NC(=O)[C@H](CCC(=O)O)NC(=O)[C@H](CCC(N)=O)NC(=O)[C@H](C)NC(=O)[C@H](CCC(=O)O)NC(=O)[C@H](CC(=O)O)NC(=O)[C@@H](NC(=O)[C@H](CC(N)=O)NC(=O)CNC(=O)[C@H](CCC(N)=O)NC(=O)[C@@H](NC(C)=O)C(C)C)[C@@H](C)O)C(=O)N[C@@H](C)C(=O)N[C@@H](CCCCN)C(=O)N[C@@H](CCSC)C(=O)N[C@H](C(=O)N[C@H](C(=O)N[C@@H](CO)C(=O)N[C@@H](CC(=O)O)C(=O)N[C@H](C(=O)N[C@@H](CCSC)C(=O)N[C@@H](CCC(N)=O)C(=O)N[C@@H](CCC(N)=O)C(N)=O)C(C)C)C(C)C)[C@@H](C)CC` [SEQ ID NO:15] (Ac-VQGNTDEAQEELAWKIAKMIVSDVMQQ-NH2), the pKd at PKA-RIα-GFP is 6.30.
With “biotin-bA-bA-VQGNTDEAQEELAWKIAKMIVSDIMQQ [SEQ ID NO:14]”, the “binding to PKA-RIIα in ELISA” value at PKA-RIIα-GFP is listed as “able to bind to PKA-RIIα”.
